From paper PMC11547725, “Cold-Active Lipase from the Ice Cave Psychrobacter SC65A.3 Strain, a Promising Biocatalyst for Silybin Acylation” (Molecules, 2024)

Experiments:
Experiment in all cases: purified protein
Assay type in all cases: biochemical, Psychrobacter sp. SC65A.3
purified protein [1] = substrate: CCCCCCCCCCCCCCCC(=O)Oc1ccc([N+](=O)[O-])cc1; details: 25 °C, 50 mM Tris HCl pH 7.2
purified protein [2] = substrate: CCCC(=O)Oc1ccc([N+](=O)[O-])cc1; details: 25 °C, 50 mM Tris HCl pH 7.2, substrate in ethanol
purified protein [3] = substrate: CCCCCCCCCCCCCCCCCC(=O)Oc1ccc([N+](=O)[O-])cc1; details: 25 °C

B1: PSL2 (Psychrobacter sp. SC65A.3) (protein)
chain: MSNSTVLSVNTLLNKAVKTLNLMSFGQDKNPKSTDINLSDEIIDIEESALQDSREDKGLSIKEKILEHHLMTNYQPHLLHYAIKSFGCLPTPILESLIKCLDGPTSKQYLHVDAHLRLILAVNSKLKTPLQLIEMSELRKRFATDAVAMQAPKVWQQASDNLLSNLKQFHKKGDSAISWQDRTITNADDGDMTIRCYQNETSDNGFGFKKEQTSNPDETVLLFFHGGGFCIGDLNTHHEFCHAICEQTGWPVISVDYRLAPEHPAPAAVRDCISAYAWLAEHCEEFGALPSRIVLAGDSAGGGLSTLMAQQIITPNKEAWLDLGDEGQKTFDILQGLPHPMAQMPLYPVTDIETDYPSWELYGEGLLLDHADVAIFDAACLENSPLPRQHILTSPMLGDNRQVCPSYVVAAELDVLRDEAFAYANQLKSFGIAVQTHTVLGAPHGFIHFMSVHQRLGQETQHIITGFANFVREIIKTRALLSA
Km (purified protein [1]): 4.30 mM | kcat/Km (purified protein [1]): 5.75 M⁻¹ s⁻¹ | Km (purified protein [2]): 2.38 mM | kcat/Km (purified protein [2]; text b41 swaps the kcat of butyrate and stearate, table value taken (fits kcat/Km)): 25 M⁻¹ s⁻¹ | Km (purified protein [3]; 50 mM Tris HCl pH 7.2): 3.70 mM | kcat/Km (purified protein [3]; 50 mM Tris HCl pH 7.2, text b41 swaps the kcat of butyrate and stearate, table value taken (fits kcat/Km)): 13.9 M⁻¹ s⁻¹
